Data taken from PMC8151509.
Residue numbers refer to the chain shown, from its start. Numbers in names are those of the source.

B1: LAIR-1 Ig-like domain, wild type, Q6GTX8 P107R (protein)
chain: QEEDLPRPSISAEPGTVIPLGSHVTFVCRGPVGVQTFRLERDSRSTYNDTEDVSQASPSESEARFRIDSVREGNAGLYRCIYYKPRKWSEQSDYLELLVKE
B2: LAIR-1 Ig-like domain, wild type, Q6GTX8 I102L (protein)
chain: B1 chain with I81L, R86P
B3: LAIR-1 Ig-like domain, wild type, Q6GTX8 E72K (protein)
chain: B1 chain with E51K, R86P
B4: LAIR-1 Ig-like domain, wild type, Q6GTX8 E111K (protein)
chain: B1 chain with R86P, E90K
B5: LAIR-1 Ig-like domain, wild type, Q6GTX8 E61A (protein)
chain: B1 chain with E40A, R86P
B6: LAIR-1 Ig-like domain, wild type (domain or fragment)
chain: B1 chain with R86P

Assays:
[1] = biological target: C1qstem_nc2, P02745;P02746; experiment: SPR; settings: chain shown with the change; immobilized C1qstem_nc2; parent: est. 100; read off a plot
[2] = biological target: C1qCLR_nc2 (wild type, devoid of the additional GPP triplets), P02745;P02747; experiment: SPR; settings: chain shown with the change; immobilized C1qCLR_nc2; parent: est. 100; read off a plot
[3] = biological target: C1qCLR_nc2 A_R72E (UniProt P02745); experiment: SPR; LAIR-1 Ig-like domain injected at increasing concentrations (4-128, 4-256 or 3.125-400 µM) over immobilized C1q, rC1q variants, C1qCLR_nc2 variants or C1qstem_nc2 (CM5, amine coupling); 25 °C; 50 mM Tris, 150 mM NaCl, 2 mM CaCl2, 0.05% surfactant P20, pH 7.5; KD from Req versus concentration, steady-state model
[4] = biological target: C1qCLR_nc2 B_K65E (UniProt P02745); experiment: as above
[5] = biological target: C1qstem_nc2 (UniProt P02745); experiment: as above
[6] = biological target: C1qCLR_nc2 (wild type, devoid of the additional GPP triplets) (UniProt P02745); experiment: as above

Chain of C1qstem_nc2, P02745;P02746 (chain, as listed by the source, chain 1 of 3): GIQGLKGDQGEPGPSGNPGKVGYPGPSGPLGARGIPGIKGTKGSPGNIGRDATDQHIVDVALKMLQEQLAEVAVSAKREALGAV
Chain of C1qstem_nc2, P02745;P02746 (chain, as listed by the source, chain 2 of 3): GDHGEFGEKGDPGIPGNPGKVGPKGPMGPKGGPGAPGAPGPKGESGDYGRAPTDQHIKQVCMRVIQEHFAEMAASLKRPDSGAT
Chain of C1qstem_nc2, P02745;P02746 (chain, as listed by the source, chain 3 of 3): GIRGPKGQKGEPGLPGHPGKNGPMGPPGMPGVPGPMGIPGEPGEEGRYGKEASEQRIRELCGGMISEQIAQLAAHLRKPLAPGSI
Chain of C1qCLR_nc2 (wild type, devoid of the additional GPP triplets), P02745;P02747 (chain, as listed by the source, chain 1 of 3): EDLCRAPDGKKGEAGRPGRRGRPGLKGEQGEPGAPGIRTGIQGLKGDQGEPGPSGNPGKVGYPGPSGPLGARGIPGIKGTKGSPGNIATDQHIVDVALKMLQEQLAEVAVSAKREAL
Chain of C1qCLR_nc2 (wild type, devoid of the additional GPP triplets), P02745;P02747 (chain, as listed by the source, chain 2 of 3): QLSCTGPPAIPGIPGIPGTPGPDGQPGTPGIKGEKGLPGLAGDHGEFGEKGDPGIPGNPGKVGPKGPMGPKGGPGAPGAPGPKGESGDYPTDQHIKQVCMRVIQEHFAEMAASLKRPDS
Chain of C1qCLR_nc2 (wild type, devoid of the additional GPP triplets), P02745;P02747 (chain, as listed by the source, chain 3 of 3): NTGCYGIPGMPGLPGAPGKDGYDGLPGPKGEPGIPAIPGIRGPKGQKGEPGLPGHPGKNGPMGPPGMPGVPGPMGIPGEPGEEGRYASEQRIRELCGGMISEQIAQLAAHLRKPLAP

Binder	percent of parent (% of LAIR-1 WT binding) [1]	percent of parent (% of LAIR-1 WT binding) [2]	Kd [3] [µM]	Kd [4] [µM]	Kd [5] [µM]	Kd [6] [µM]
B1	69	60				
B2	20	21				
B3	21	21				
B4	34	36				
B5	6	11				
B6			295	189	175	179
